Earlier results as cited in publication PMC8989918.

What was measured:
[1] = molecular target: PTPN22 SH3-binding peptide (Homo sapiens) (UniProt Q9Y2R2)
[2] = molecular target: PTPN12 (PTP-PEST) (Homo sapiens) (UniProt Q05209)
Chain of PTPN12 (PTP-PEST) (Homo sapiens) (Q05209 whole entry): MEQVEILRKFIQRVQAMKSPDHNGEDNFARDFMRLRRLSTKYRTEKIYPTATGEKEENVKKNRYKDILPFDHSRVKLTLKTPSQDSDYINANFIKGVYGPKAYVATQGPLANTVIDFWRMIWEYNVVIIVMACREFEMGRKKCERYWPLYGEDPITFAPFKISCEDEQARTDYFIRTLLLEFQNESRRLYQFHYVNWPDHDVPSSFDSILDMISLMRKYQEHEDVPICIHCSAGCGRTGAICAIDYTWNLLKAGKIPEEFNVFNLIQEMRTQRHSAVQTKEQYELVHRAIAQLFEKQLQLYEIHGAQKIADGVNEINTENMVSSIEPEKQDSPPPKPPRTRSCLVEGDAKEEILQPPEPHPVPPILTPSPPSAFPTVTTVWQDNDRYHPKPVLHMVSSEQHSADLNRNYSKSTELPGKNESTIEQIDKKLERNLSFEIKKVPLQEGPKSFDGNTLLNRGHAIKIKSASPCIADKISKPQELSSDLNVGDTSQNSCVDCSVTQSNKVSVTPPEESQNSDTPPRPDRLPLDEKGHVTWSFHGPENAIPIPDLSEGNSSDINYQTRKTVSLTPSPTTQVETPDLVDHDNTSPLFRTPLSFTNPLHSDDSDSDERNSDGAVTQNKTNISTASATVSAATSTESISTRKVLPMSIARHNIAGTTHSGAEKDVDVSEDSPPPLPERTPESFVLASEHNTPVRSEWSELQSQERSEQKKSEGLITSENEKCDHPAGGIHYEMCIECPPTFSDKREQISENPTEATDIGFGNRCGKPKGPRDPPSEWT

Chain of Csk SH3 (P41240 6-73): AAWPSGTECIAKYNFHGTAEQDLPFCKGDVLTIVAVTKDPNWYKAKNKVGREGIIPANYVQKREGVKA
Chain of PTPN22 SH3-binding peptide (Homo sapiens) (Q9Y2R2 whole entry): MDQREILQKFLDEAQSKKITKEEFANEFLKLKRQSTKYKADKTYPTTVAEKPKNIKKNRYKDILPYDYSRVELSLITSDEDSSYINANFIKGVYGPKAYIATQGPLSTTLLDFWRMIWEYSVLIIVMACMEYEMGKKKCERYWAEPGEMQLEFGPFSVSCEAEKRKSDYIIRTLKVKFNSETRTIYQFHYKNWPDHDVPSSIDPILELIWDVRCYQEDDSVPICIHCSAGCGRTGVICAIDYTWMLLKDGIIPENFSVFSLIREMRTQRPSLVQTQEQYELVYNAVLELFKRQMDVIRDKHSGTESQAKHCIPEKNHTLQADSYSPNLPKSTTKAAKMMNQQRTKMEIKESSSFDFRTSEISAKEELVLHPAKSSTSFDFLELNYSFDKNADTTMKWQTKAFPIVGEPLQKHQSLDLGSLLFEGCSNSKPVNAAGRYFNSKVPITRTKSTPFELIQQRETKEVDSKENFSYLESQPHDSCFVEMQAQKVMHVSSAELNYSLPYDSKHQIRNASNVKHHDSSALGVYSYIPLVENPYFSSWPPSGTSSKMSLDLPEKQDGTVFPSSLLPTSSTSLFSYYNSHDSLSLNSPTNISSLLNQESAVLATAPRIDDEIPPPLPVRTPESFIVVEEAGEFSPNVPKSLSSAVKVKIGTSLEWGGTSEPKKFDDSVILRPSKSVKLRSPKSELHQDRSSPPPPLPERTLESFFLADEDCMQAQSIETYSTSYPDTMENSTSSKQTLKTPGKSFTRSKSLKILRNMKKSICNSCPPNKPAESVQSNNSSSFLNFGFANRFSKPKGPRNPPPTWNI

Kd [1]: 0.8 µM
Kd [2]: 8 µM
Substance: Csk SH3 (from UniProt P41240)
